Biological target: NTH-RNase E wild type (Escherichia coli (K12, P21513-1 in alignment)) (UniProt P21513)
Assay: competition
Details: competitor of 7.5 nM BR15 quadruplex, 20 nM NTH, 25 mM bis-Tris propane pH 8.3, 100 mM KCl, 15 mM CaCl2, 0.1% (v/v) Triton X-100, 1 mM DTT, 20% (v/v) glycerol, 37 C 20 min, 1% agarose gel in 1x TBE

Row | Substance | IC50 | IC50 (does not compete effectively)
1 | glnW-metU segment | 229 nM | 
2 | glnW-tRNA (no flanking single-stranded regions) |  | > 2500 nM
3 | metU-tRNA with 5' and 3' single-stranded regions | 147 nM | 

Reference: paper PMC9841416
